Measurements reported in the supplement of paper PMC6757056.
± gives the standard deviation of the averaged measurements.

B1: library; a variant is named by its letters at N, in order (parent)
chain: GCUGUCACCGGUGCUUGGUACGUUAUAUUCAGCCGGUCUGAUGAGUCUNNNNNNAGACGAAACAGC

What was measured:
[1] = variants of: B1; assay: FACS-Seq fitted mean relative fluorescence mCherry/BFP without ligand (log10 relative fluorescence); HEK293T overexpressing SLC46A1; higher = higher reporter protein expression; settings: without (6R,S)-folinic acid; ligand present: no
Procedure, shortened: (§1)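 Fluorescence comes from a normal fit to bin counts, normalized against controls. HEK293T libraries lentivirally given a ribozyme-switch mCherry reporter and an EF1α-BFP marker were enriched, incubated 48 h with or without ligand, and sorted by mCherry/BFP into 6 bins. Bin genomic DNA was PCR-amplified, barcoded and sequenced on MiSeq. The log10(mCherry/BFP) mean was scaled to five spiked-in control ribozymes.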

[2] = variants of: B1; assay: normalized RNA/DNA level without ligand (relative to sTRSVctl = 100) (log10 (% of sTRSVctl)); HEK293T overexpressing SLC46A1; higher = less ribozyme self-cleavage, higher mRNA level; settings: without (6R,S)-folinic acid; ligand present: no
Description: (§2)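 Hammerhead (sTRSV) ribozyme switch libraries with a ligand aptamer grafted on stem I and a randomized N4-6 loop II, cloned into the 3' UTR of mCherry and transiently transfected into HEK293T cells; RNA-Seq 72 h post transfection with ligand added 1 h before transfection; RNA read count / plasmid DNA read count normalized to the non-cleaving sTRSVctl (x100), log10; sequences with >100 DNA reads. FACS-Seq: lentiviral library sorted into 6 bins after 48 h ligand, log-normal fit mean of mCherry/BFP scaled to controls. Printed sequences are partial switch sequences.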

[3] = variants of: B1; assay: FACS-Seq fitted mean relative fluorescence mCherry/BFP with ligand (log10 relative fluorescence); HEK293T overexpressing SLC46A1; ligand concentration (+) FACS-Seq: 6 mM; higher = higher reporter protein expression; settings: with (6R,S)-folinic acid; ligand present: yes
Procedure, shortened: as §1

[4] = variants of: B1; assay: normalized RNA/DNA level with ligand (relative to sTRSVctl = 100) (log10 (% of sTRSVctl)); HEK293T overexpressing SLC46A1; ligand concentration (+) RNA-Seq: 6 mM; higher = less ribozyme self-cleavage, higher mRNA level; settings: with (6R,S)-folinic acid; ligand present: yes
Description: as §2

Variant | FACS-Seq fitted mean (log10) [1] | normalized RNA/DNA level without ligand (log10) [2] | FACS-Seq fitted mean (log10) [3] | normalized RNA/DNA level with ligand (log10) [4]
GCUGUCACCGGUGCUUGGUACGUUAUAUUCAGCCGGUCUGAUGAGUCUACAGGGAGACGAAACAGC [ACAGGG] | 0.0799 ± 0.097 | 1.7 ± 0.032 | 0.604 ± 0.24 | 1.97 ± 0.029
GCUGUCACCGGUGCUUGGUACGUUAUAUUCAGCCGGUCUGAUGAGUCUACAGGUAGACGAAACAGC [ACAGGU] | 0.385 ± 0.057 | 1.909 ± 0.019 | 0.437 ± 0.1 | 1.97 ± 0.052
GCUGUCACCGGUGCUUGGUACGUUAUAUUCAGCCGGUCUGAUGAGUCUCCAGAUAGACGAAACAGC [CCAGAU] | 0.213 ± 0.0078 | 2.003 ± 0.0083 | 0.000255 ± 0.023 | 2.01 ± 0.027
GCUGUCACCGGUGCUUGGUACGUUAUAUUCAGCCGGUCUGAUGAGUCUACAGAUAGACGAAACAGC [ACAGAU] | -0.89 ± 0.044 | 1.95 ± 0.0032 | -0.82 ± 0.13 | 2.03 ± 0.04
GCUGUCACCGGUGCUUGGUACGUUAUAUUCAGCCGGUCUGAUGAGUCUACAGAAAGACGAAACAGC [ACAGAA] | 0.191 ± 0.02 | 1.947 ± 0.0015 | 0.0345 ± 0.24 | 2 ± 0.024
GCUGUCACCGGUGCUUGGUACGUUAUAUUCAGCCGGUCUGAUGAGUCUACAGAGAGACGAAACAGC [ACAGAG] | 0.511 ± 0.086 | 1.6069 ± 0.00022 | 0.928 ± 0.2 | 1.94 ± 0.048
GCUGUCACCGGUGCUUGGUACGUUAUAUUCAGCCGGUCUGAUGAGUCUACAGACAGACGAAACAGC [ACAGAC] | 0.355 ± 0.071 | 2.0094 ± 0.0017 | 0.356 ± 0.3 | 2.021 ± 0.0097
GCUGUCACCGGUGCUUGGUACGUUAUAUUCAGCCGGUCUGAUGAGUCUUCAGGGAGACGAAACAGC [UCAGGG] | 0.0969 ± 0.0033 | 1.81 ± 0.032 | 0.351 ± 0.2 | 1.99 ± 0.041
GCUGUCACCGGUGCUUGGUACGUUAUAUUCAGCCGGUCUGAUGAGUCUUCAGGAAGACGAAACAGC [UCAGGA] | 0.149 ± 0.13 | 1.901 ± 0.011 | -0.0151 ± 0.03 | 1.98 ± 0.032
GCUGUCACCGGUGCUUGGUACGUUAUAUUCAGCCGGUCUGAUGAGUCUUCAGGUAGACGAAACAGC [UCAGGU] | 0.531 ± 0.015 | 1.9204 ± 0.0013 | 0.603 ± 0.23 | 1.99 ± 0.024
GCUGUCACCGGUGCUUGGUACGUUAUAUUCAGCCGGUCUGAUGAGUCUGCAGAUAGACGAAACAGC [GCAGAU] | 0.24 ± 0.072 | 1.958 ± 0.011 | 0.319 ± 0.16 | 2.02 ± 0.035
GCUGUCACCGGUGCUUGGUACGUUAUAUUCAGCCGGUCUGAUGAGUCUGCAGCGAGACGAAACAGC [GCAGCG] | 0.175 ± 0.0041 | 1.977 ± 0.016 | 0.0708 ± 0.18 | 2.03 ± 0.022
GCUGUCACCGGUGCUUGGUACGUUAUAUUCAGCCGGUCUGAUGAGUCUACAGCGAGACGAAACAGC [ACAGCG] | 0.271 ± 0.031 | 1.82 ± 0.023 | 0.411 ± 0.034 | 2.01 ± 0.031
GCUGUCACCGGUGCUUGGUACGUUAUAUUCAGCCGGUCUGAUGAGUCUACAGCAAGACGAAACAGC [ACAGCA] | 0.531 ± 0.039 | 2.015 ± 0.012 | 0.555 ± 0.17 | 2.04 ± 0.037
GCUGUCACCGGUGCUUGGUACGUUAUAUUCAGCCGGUCUGAUGAGUCUGCAGUAAGACGAAACAGC [GCAGUA] | 0.218 ± 0.051 | 1.98 ± 0.022 | 0.482 ± 0.12 | 2.02 ± 0.038
GCUGUCACCGGUGCUUGGUACGUUAUAUUCAGCCGGUCUGAUGAGUCUUCAGAUAGACGAAACAGC [UCAGAU] | 0.523 ± 0.0091 | 1.95 ± 0.0075 | 0.201 ± 0.13 | 2.013 ± 0.011
GCUGUCACCGGUGCUUGGUACGUUAUAUUCAGCCGGUCUGAUGAGUCUGCAGGAAGACGAAACAGC [GCAGGA] | 0.7 ± 0.19 | 1.972 ± 0.0072 | 0.642 ± 0.041 | 2.02 ± 0.023
GCUGUCACCGGUGCUUGGUACGUUAUAUUCAGCCGGUCUGAUGAGUCUGCAGGGAGACGAAACAGC [GCAGGG] | 0.107 ± 0.12 | 1.9807 ± 0.00024 | 0.128 ± 0.053 | 2.04 ± 0.036
GCUGUCACCGGUGCUUGGUACGUUAUAUUCAGCCGGUCUGAUGAGUCUCCAGCCAGACGAAACAGC [CCAGCC] | 0.159 ± 0.022 | 2.05 ± 0.025 | -0.0156 ± 0.022 | 2.03 ± 0.039
GCUGUCACCGGUGCUUGGUACGUUAUAUUCAGCCGGUCUGAUGAGUCUUCAGUCAGACGAAACAGC [UCAGUC] | 0.427 ± 0.2 | 2.083 ± 0.016 | 0.298 ± 0.2 | 2.013 ± 0.015
GCUGUCACCGGUGCUUGGUACGUUAUAUUCAGCCGGUCUGAUGAGUCUUCAGCGAGACGAAACAGC [UCAGCG] | 0.14 ± 0.042 | 1.912 ± 0.0054 | 0.669 ± 0.098 | 2.03 ± 0.023
